According to article PMC3351833 (Biochemical Journal, 2011):
acyl = not defined here

Target: calmodulin (recombinant rat CaM) (rat, UniProt P0DP29 2-149)
Experiment: NMR titration

stoichiometry N: 1
B1: Cx50p^141–166 (connexin50 CaM-binding domain peptide, residues 141–166) (peptide)
peptide: acyl-SSKGTKKFRLEGTLLRTYVCHIIFKT-NH2
modifications: reading uncertain
